Measured values published in publication PMC11470960 (Immunity, 2024).

Legend:
SEC = molecular target: the molecule itself; assay: SEC
PLD3 (active) = molecular target: T1, PLD3 (active) (Homo sapiens, UniProt Q8IV08 60-490); assay: cryo-EM
T1 sequence: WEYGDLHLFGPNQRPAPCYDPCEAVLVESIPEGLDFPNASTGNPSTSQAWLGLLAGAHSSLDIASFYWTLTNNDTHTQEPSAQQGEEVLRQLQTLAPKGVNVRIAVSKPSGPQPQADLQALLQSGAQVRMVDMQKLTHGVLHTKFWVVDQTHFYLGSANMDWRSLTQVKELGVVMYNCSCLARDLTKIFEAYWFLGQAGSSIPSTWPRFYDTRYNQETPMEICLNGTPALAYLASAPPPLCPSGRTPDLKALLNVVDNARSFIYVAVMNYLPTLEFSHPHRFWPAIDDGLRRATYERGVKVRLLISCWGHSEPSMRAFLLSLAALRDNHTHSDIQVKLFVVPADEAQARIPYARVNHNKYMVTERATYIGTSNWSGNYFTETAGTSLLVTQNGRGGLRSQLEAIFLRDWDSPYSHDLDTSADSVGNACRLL

PLD3(H201N,H416N) = molecular target: T2, PLD3(H201N,H416N) (Homo sapiens, UniProt Q8IV08 60-490, H201N;H416N); assay: fluorescence anisotropy
T2 sequence: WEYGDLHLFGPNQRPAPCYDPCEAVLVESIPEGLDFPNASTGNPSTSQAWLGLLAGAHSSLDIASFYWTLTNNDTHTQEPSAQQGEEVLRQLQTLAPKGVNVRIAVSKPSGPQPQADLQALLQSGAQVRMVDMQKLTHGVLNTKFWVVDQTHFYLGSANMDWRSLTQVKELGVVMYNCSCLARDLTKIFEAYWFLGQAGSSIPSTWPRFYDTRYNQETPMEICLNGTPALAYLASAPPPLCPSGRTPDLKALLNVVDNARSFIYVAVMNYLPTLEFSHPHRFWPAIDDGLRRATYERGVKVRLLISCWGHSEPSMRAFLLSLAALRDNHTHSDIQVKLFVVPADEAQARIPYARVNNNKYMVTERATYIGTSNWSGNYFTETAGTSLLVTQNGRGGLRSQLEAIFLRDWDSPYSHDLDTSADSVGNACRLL

B1: PLD3(V232M), soluble catalytic domain (enzyme, human)
chain: WEYGDLHLFGPNQRPAPCYDPCEAVLVESIPEGLDFPNASTGNPSTSQAWLGLLAGAHSSLDIASFYWTLTNNDTHTQEPSAQQGEEVLRQLQTLAPKGVNVRIAVSKPSGPQPQADLQALLQSGAQVRMVDMQKLTHGVLHTKFWVVDQTHFYLGSANMDWRSLTQVKELGMVMYNCSCLARDLTKIFEAYWFLGQAGSSIPSTWPRFYDTRYNQETPMEICLNGTPALAYLASAPPPLCPSGRTPDLKALLNVVDNARSFIYVAVMNYLPTLEFSHPHRFWPAIDDGLRRATYERGVKVRLLISCWGHSEPSMRAFLLSLAALRDNHTHSDIQVKLFVVPADEAQARIPYARVNHNKYMVTERATYIGTSNWSGNYFTETAGTSLLVTQNGRGGLRSQLEAIFLRDWDSPYSHDLDTSADSVGNACRLL
binding result (SEC): binds

B2: (rU*rC*)10 ssRNA (ssRNA)
RNA: UCUCUCUCUCUCUCUCUCUC
modifications: phosphorothioate backbone
binding result (PLD3 (active)): binds

B3: RNA9.2s 11 nt (ssRNA)
RNA: AGCUUAACCUG
binding result (PLD3(H201N,H416N)): no binding
